According to US10801027B2, “Inhibitors of SRSF1 to treat neurodegenerative disorders” (University of Sheffield, priority 2016, dated 2020):

Assays:
[1] = test system: poly-Gly-Pro and poly-Gly-Ala DPRs; assay: Western blot of RAN-translated DPRs in N2A cells; format: cell-based, mouse; conditions: G4C2×38 or C4G2×39 constructs, 72 h
Description: Neuro-2a (ATCC) cells were cultured in Dulbecco's Modified Eagle Medium (Sigma) supplemented with 10% fetal bovine serum [FBS] (Gibco), 5 U/ml Penstrep (Lonza) and 5 mM sodium pyruvate. Cells were maintained in a […] incubator with 5% CO2. 75,000 Neuro-2a cells were split into each well of 24-well plates and transfected for 72 h with 500 ng pcDNA6.2-GW/EmGFP-Control miR RNAi (ThermoFisher) or pcDNA6.2-GW/EmGFP-mouse SRSF1 miR1+2 RNAi and 200 ng pcDNA 3.1/RAN-G4C2×38-sense or RAN-C4G2×39-antisense using 3 μg PEI/1 μg DNA and one tenth medium volume OptiMEM (ThermoFisher).
HEK cells were transfected for 72 h with 650 ng pcDNA6.2-GW/EmGFP-Control miRNA, pCDNA6.2-GW/EmGFP-human SRSF1 miR1+2 RNAi or LV-EmGFP-human SRSF1 miR1+2 RNAi constructs and 50 ng p3×FLAG/human-SRSF1 using 3.5 μg PEI/ml media and one tenth medium volume of OptiMEM. Neuro-2a cells were split into each well of 24-well plates (75,000 cells/well) and transfected for 72 h with 350 ng pcDNA6.2-GW/EmGFP-Control miR RNAi (ThermoFisher), pcDNA6.2-GW/EmGFP-mouse SRSF1 miR1+2 RNAi, p3×FLAG, p3×FLAG/SRSF1 (11-196), p3×FLAG/SRSF1 (11-196)-m2 or p3×FLAG/SRSF1 (11-196)-m4 and 350 ng pcDNA 3.1/RAN-G4C2×38-sense or RAN-C4G2×39-antisense using 3 μg PEI/1 μg DNA and one tenth medium volume OptiMEM.
Proteins were extracted from HEK or Neuro-2a cells 72 hours after transfection. […] Protein extracts were quantified using Bradford Reagent (BioRAD), resolved by SDS-PAGE, electroblotted onto nitrocellulose membrane and probed using the relevant primary antibody. […] (kindly received from Prof Stuart Pickering Brown) primary antibodies were detected with horseradish peroxidase (HRP)-conjugated rabbit secondary antibody [1:5000 dilution] […] (kindly provided from Prof Dieter Edbauer) primary antibodies were detected using HRP-conjugated mouse secondary antibody [1:5000 dilution] […] For dot blot analysis, 50 μg total protein extracts prepared in ice-cold lysis buffer were loaded onto a nitrocellulose membrane using a microfiltration apparatus (Biorad) and analysed by western immunoblotting as previously described.

G4C2×5 repeat RNA = assay: Protein:RNA UV crosslinking assay, sense probe; format: binding; conditions: purified recombinant hexa-histidine-tagged protein
Description: Recombinant proteins expressed in 1.51 of E. coli BL21 (DE3)-RP (Novagen) cell cultures were purified by IMAC chromatography on TALON/Cobalt beads (Clontech) in 1M NaCl containing buffers to prevent the potential co-purification of E. coli RNA (Lysis buffer: 50 mM TRIS-HCl pH8.0, 1M NaCl, 0.5% Triton X-100; Wash buffer: 50 mM TRIS-HCl pH8.0, 1M NaCl, 0.5% Triton X-100, 5 mM imidazole). […] Binding reactions were resolved on SDS-PAGE prior to analysis by Coomassie staining and Phosphoimaging.

B1: SRSF1-m4: quadruple SRSF1 point mutant aa11-196, dominant negative, does not interact with TAP/NXF1 (protein)
chain: AGNNDCRIYVGNLPPDIRTKDIEDVFYKYGAIRDIDLKNRRGGPPFAFVEFEDPRDAEDAVYGRDGYDYDGYRLRVEFPASGAGTGRGGGGGGGGGAPRGRYGPPSAASENRVVVSGLPPSGSWQDLKDHMREAGDVCYADVYRDGTGVVEFVRKEDMTYAVRKLDNTKFRSHEGETAYIRVKVDG
modifications: left off: small tags and cut ends
[1]
  effect on RAN translation / production of sense and antisense DPRs: marked reduction
G4C2×5 repeat RNA
  direct interaction with sense G4C2×5 repeat RNA: retains the ability to directly interact
